For one series, the target named is gDHER2(DIV)-IgG (UniProt P04626).

Turning to “purified catalytic domain of MT4-MMP (MMP-19)”, the “in vitro HER2 cleavage (sheddase) assay, stained gel” value in the series with gDHER2(DIV)-IgG was “All MT-MMPs except MMP-14 efficiently cleave gDHER2(DIV)-IgG substrate”.
On the same count and under the same terms, to “purified catalytic domain of MT3-MMP (MMP-16)” belongs “All MT-MMPs except MMP-14 efficiently cleave gDHER2(DIV)-IgG substrate”.
As to “MMP-15 (MT2-MMP), construct not specified at that place”, the “in vitro cleavage of HER-Fc proteins” value in the series with other HER receptors is listed as “MMP-15 does not clip other HER receptors”.
Regarding “purified catalytic domain of MT2-MMP (MMP-15)”, the “in vitro HER2 cleavage (sheddase) assay, stained gel” value with gDHER2(DIV)-IgG is on record as “All MT-MMPs except MMP-14 efficiently cleave gDHER2(DIV)-IgG substrate”.
